Assay results published in publication PMC11043418, “Bacillus velezensis iturins inhibit the hemolytic activity of Staphylococcus aureus” (Scientific Reports, 2024).

Molecular target: the molecule itself
Assay: SDS-PAGE of deoxycholate-induced oligomers

B1: alpha-hemolysin (natural protein)
chain: ADSDINIKTGTTDIGSNTTVKTGDLVTYDKENGMHKKVFYSFIDDKNHNKKLLVIRTKGTIAGQYRVYSEEGANKSGLAWPSAFKVQLQLPDNEVAQISDYYPRNSIDTKEYMSTLTYGFNGNVTGDDTGKIGGLIGANVSIGHTLKYVQPDFKTILESPTDKKVGWKVIFNNMVNQNWGPYDRDSWNPVYGNQLFMKTRNGSMKAADNFLDPNKASSLLSSGFSPDFATVITMDRKASKQQTNIDVIYERVRDDYQLHWTSTNWKGTNTKDKWTDRSSERYKIDWEKEEMTN
notes: also called α-hemolysin; Hla
For B1, the “stoichiometry N” value was 7.
